Experimental data reported in patent US20120225055A1 (GlaxoSmithKline, published 2012).
Residue numbers refer to the chain shown, from its start.

Columns and labels:
[1] = target: T1, human serum amyloid P component (SAP), purified (Homo sapiens, UniProt P02743 20-223); experiment: Biacore, human SAP amine-coupled on CM3 chip, bivalent analyte model
T1 construct: Immobilised directly, amine-coupled, captured on O-phosphoethanolamine or by sheep polyclonal antibody, depending on the assay; also called human SAP; native human SAP
Protocol: Human SAP was immobilised on a Biacore CM3 chip by primary amine coupling in accordance with the manufacturer's instructions. […] All runs were double referenced with a buffer injection over the human SAP surface. Analysis was carried out at 25° C. using HBS-EP buffer.

[2] = target: T1, human serum amyloid P component (SAP), …; experiment: Biacore, human SAP amine-coupled on C1 chip, culture supernatant, 1 to 1 dissociation model, single curve
Protocol: Human and cynomologus monkey SAP were immobilised on a Biacore C1 chip by primary amine coupling in accordance with the manufacturer's instructions. […] All runs were double referenced with a buffer injection for purified sample or media for the supernatant samples over the human and cyno SAP surfaces. Analysis was carried out at 25° C. using HBS-EP buffer. […] Data were analysed using the 1 to 1 dissociation model within the Biacore T100 evaluation software.
The values were based on a single curve and used for ranking purposes between the different constructs for binding to human SAP.

[3] = target: T1, human serum amyloid P component (SAP), …; experiment: direct ELISA, human SAP coated at 1 µg/mL, detection with goat anti-human kappa light chain peroxidase conjugate
Protocol: (§1) 1 μg/mL human SAP was directly immobilised onto an ELISA plate and blocked with 1% BSA/TBS plus 0.05% TWEEN20. Anti-SAP antibodies from the test supernatants or purified material were titrated across the plate. Bound antibody was detected by treatment with goat anti-human Kappa Light Chains peroxidase conjugate (Sigma, A7164). The ELISA was developed using O-phenylenediamine dihydrochloride (OPD) peroxidase substrate (Sigma, P9187).

[4] = target: T1, human serum amyloid P component (SAP), …; experiment: ELISA, 1 ug/mL human SAP directly immobilised
Protocol: as §1

[5] = target: T1, human serum amyloid P component (SAP), …; experiment: binding ELISA and Biacore off-rate ranking
[6] = target: T1, human serum amyloid P component (SAP), …; experiment: Biacore kinetics, human SAP captured on immobilised O-phosphoethanolamine; alanine at position 91 of L0, not wild-type H3L0
Protocol: (§2) O-phosphoethanolamine was immobilised on a Biacore CM5 chip by primary amine coupling in accordance with the manufacturer's instructions. Human SAP was then captured on the surface in the presence of calcium chloride, in order to replicate in the Biacore system in vitro, the precise orientation of SAP molecules bound to amyloid fibrils in vivo. Anti SAP antibodies were then passed over this surface at 256, 64, 16, 4, 1 nM and a binding sensorgrams obtained. Analysis was carried out at 25° C. using 4% BSA, 10 mM Tris, 140 mM NaCl, 2 mM CaCl₂, 0.05% surfactant P20, 0.02% Na N₃, pH 8.0 as running buffer. […] Data generated were double referenced with a buffer injection over the human SAP surface and analyzed using the bivalent analyte model in the Biacore T100 evaluation software.

[7] = target: T1, human serum amyloid P component (SAP), …; experiment: Biacore, human SAP captured on immobilised O-phosphoethanolamine (CM5 chip, calcium), bivalent analyte model
Protocol: as §2

[8] = target: T1, human serum amyloid P component (SAP), …; experiment: direct ELISA, human SAP coated at 5 µg/mL, detection with HRP rabbit anti-mouse IgG
Protocol: (§3) 1 μg/mL or 5 μg/mL human SAP was directly immobilised onto an ELISA plate and blocked with 1% BSA/TBS plus 0.05% TWEEN20. Anti-SAP antibodies from purified material were titrated across the plate. Bound antibody was detected by treatment with a horse-radish peroxidase (HRP)-conjugated rabbit-anti-mouse IgG antibody (Dako, P0260). The ELISA was developed using O-phenylenediamine dihydrochloride (OPD) peroxidase substrate (Sigma, P9187).

[9] = target: T1, human serum amyloid P component (SAP), …; experiment: direct ELISA, human SAP coated at 1 µg/mL, detection with HRP rabbit anti-mouse IgG
Protocol: as §3

[10] = target: T1, human serum amyloid P component (SAP), …; experiment: Biacore (BIAcoreX), human SAP covalently immobilised on the chip; mean and SD of 3 replicates
[11] = target: T1, human serum amyloid P component (SAP), …; experiment: Biacore (BIAcoreX), human SAP covalently immobilised on the chip; mean and SD of 3 replicates; human SAP covalently immobilised on the chip; mean of 3 replicates
[12] = target: T2, human SAP N-terminal 1-158-homoserine lactone polypeptide (CNBr cleavage fragment) (Homo sapiens, position 159 converted from methionine to homoserine lactone); experiment: western blot from SDS-PAGE
T2 construct: Tested in western blot from SDS-PAGE; also called approximately 20 kD fragment
T2 chain: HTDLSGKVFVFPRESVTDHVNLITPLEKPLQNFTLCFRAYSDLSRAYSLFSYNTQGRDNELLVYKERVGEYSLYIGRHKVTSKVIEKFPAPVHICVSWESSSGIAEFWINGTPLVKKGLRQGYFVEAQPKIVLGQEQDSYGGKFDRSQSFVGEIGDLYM

[13] = target: T3, human SAP 1-140 fragment (chymotrypsin digestion in the absence of calcium) (Homo sapiens); experiment: western blot from SDS-PAGE
T3 construct: Tested in western blot from SDS-PAGE; also called residue 1-140 fragment
T3 chain: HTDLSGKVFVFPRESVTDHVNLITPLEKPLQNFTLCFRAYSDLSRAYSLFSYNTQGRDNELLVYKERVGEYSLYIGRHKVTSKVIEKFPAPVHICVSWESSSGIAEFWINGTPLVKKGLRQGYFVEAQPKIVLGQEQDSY

[14] = target: T4, isolated pure human C-reactive protein (CRP) (human, UniProt P02741 19-224); experiment: western blot from SDS-PAGE
T4 construct: also called human CRP
T4 sequence (looked up): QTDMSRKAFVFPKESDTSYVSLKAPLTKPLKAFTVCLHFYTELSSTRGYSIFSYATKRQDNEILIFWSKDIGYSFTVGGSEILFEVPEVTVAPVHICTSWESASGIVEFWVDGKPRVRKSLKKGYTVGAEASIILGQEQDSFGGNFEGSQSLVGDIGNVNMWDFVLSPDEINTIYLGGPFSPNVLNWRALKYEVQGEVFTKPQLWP

[15] = target: T1, human serum amyloid P component (SAP), …; experiment: Biacore, human SAP captured on immobilised O-phosphoethanolamine (CM5 chip, calcium), bivalent analyte model; kd outside the Biacore measurement range
Protocol: as §2

[16] = target: T1, human serum amyloid P component (SAP), …; experiment: competition ELISA, human SAP coated at 5 µg/mL, constant SAP-E chimera (cSAP-E) as competitor, bound chimera detected with goat anti-human kappa light chain peroxidase conjugate
Excerpt: A constant concentration of chimeric anti-SAP mAb was mixed with serial diluted (1:1) amounts of mouse anti-SAP mAbs. Plates were washed and the amount of chimeric antibody bound to the immobilised human SAP was detected using goat anti-human Kappa Light chain peroxidase conjugate (Sigma, A7164). The ELISA was developed using O-phenylenediamine dihydrochloride (OPD) peroxidase substrate (Sigma, P9187).

B1: SAP-K H1L0 humanised antibody (antibody, V domains shown)
VH: QVQLVQSGAEVKKPGSSVKVSCKASGYTFTSYWMHWVRQAPGQGLEWMGMIHPNSVNTNYNEKFKSRVTITADKSTSTAYMELSSLRSEDTAVYYCARRNDYYWYFDVWGQGTLVTVSS
VL: DIQMTQSPSSLSASVGDRVTITCKASQNVNSNVAWYQQKPGKAPKLLIYSASYRYSGVPSRFSGSGSGTDFTLTISSLQPEDFATYYCQQCNNYPFTFGQGTKLEIK
Kd [1]: 155 nM | koff [1]: 0.0178 s⁻¹ | kon [1]: 115000 M⁻¹ s⁻¹ | koff [2]: 0.0171 s⁻¹ | EC50 (read off the curve) [3]: ~0.1 µg/mL | fold loss of human SAP binding activity compared to the SAP-K chimera [4]: ~2 fold

B2: SAP-K H0L0 humanised antibody (antibody, V domains shown)
VH: B1 VH with Y27G, T30S
VL: B1 VL
Kd [1]: 739 nM | koff [1]: 0.0449 s⁻¹ | kon [1]: 60800 M⁻¹ s⁻¹ | koff [2]: 0.0263 s⁻¹ | fold loss of human SAP binding activity compared to the SAP-K chimera [4]: ~2 fold

B3: SAP-K H1 with L0 91A humanised light chain variant (antibody, human IgG1, V domains shown)
VH: B1 VH
VL: B1 VL with C91A
notes: Human IgG1/kappa; also called alanine variant paired with H1
binding result [5]: binds

B4: SAP-K H1L1 humanised antibody (antibody, V domains shown)
VH: B1 VH
VL: B1 VL with L46A
koff [2]: 0.0296 s⁻¹

B5: SAP-K H2L0 humanised antibody (antibody, V domains shown)
VH: B1 VH with M48I, V68A
VL: B1 VL
Kd [1]: 191 nM | koff [1]: 0.022 s⁻¹ | kon [1]: 115000 M⁻¹ s⁻¹ | koff [2]: 0.0204 s⁻¹ | fold loss of human SAP binding activity compared to the SAP-K chimera [4]: ~2 fold

B6: SAP-K H2L1 humanised antibody (antibody, V domains shown)
VH: B1 VH with M48I, V68A
VL: B1 VL with L46A
koff [2]: 0.0321 s⁻¹

B7: SAP-K H3 with L0 91A humanised light chain variant (antibody, human IgG1, V domains shown)
VH: B1 VH with M48I, V68A, I70L, A72V
VL: B1 VL with C91A
notes: Human IgG1/kappa; also called variant with alanine at position 91
Kd [6]: 0.436 nM

B8: SAP-K H3L1 humanised antibody (antibody, V domains shown)
VH: B1 VH with M48I, V68A, I70L, A72V
VL: B1 VL with L46A
koff [2]: 0.0236 s⁻¹

B9: SAP-K mouse monoclonal anti-human SAP antibody (antibody, mouse IgG2a, V domains shown)
VH: QVQLQQPGAELIKPGASVKLSCKASGYTFTSYWMHWVKQRPGQGLEWIGMIHPNSVNTNYNEKFKSKATLTVDKSSSTAYMQLNSLTSEDSAVYYCARRNDYYWYFDVWGTGTTVTVSS
VL: DIVMTQSQKFMSTSVGDRVSVTCKASQNVNSNVAWYQQKPGQSPKALIYSASYRYSGVPDRFTGSGSGTDFTLTITNVQSEDLAEYFCQQCNNYPFTFGSGTKLEIK
notes: also called Mouse SAP-K; murine SAP-K
Kd [7]: 0.73 nM | koff [7]: 0.000219 s⁻¹ | kon [7]: 300000 M⁻¹ s⁻¹ | EC50 (read off the curve) [8]: ~0.02 µg/mL | EC50 (read off the curve) [9]: ~0.04 µg/mL | Kd [10]: 1 nM | koff [10]: 1.7e-05 s⁻¹ | kon [10]: 31800 M⁻¹ s⁻¹

B10: SAP-E mouse monoclonal anti-human SAP antibody (antibody, mouse IgG2a, V domains shown)
VH: QASLQQSGTELVRSGASVKMSCKASGFTFATYNMHWIKQTPGQGLEWIGYIYPGDGNANYNQQFKGKATLTADTSSNTAYMQISSLTSEDSAVYFCARGDFDYDGGYYFDSWGQGTTLTVSS
VL: DIQMTQSPASLSASVGETVTITCRASENIYSYLAWYQQKQGRSPQLLVHNAKTLAEGVPSRVSGSGSGTHFSLKINGLQPEDFGNYYCQHHYGAPLTFGAGTKLELK
notes: also called Mouse SAP-E; murine SAP-E
kon [7]: 31500 M⁻¹ s⁻¹ | kon [11]: 20000 M⁻¹ s⁻¹ | EC50 (read off the curve) [8]: ~0.04 µg/mL | binding result [12]: binds | binding result [13]: binds | binding result [14]: no binding (tested: 500 ng and 100 ng loaded) | Kd [10]: 5 nM | koff [10]: 6e-05 s⁻¹ | koff [15]: < 1e-05 s⁻¹ | IC50 (read off the curve) [16]: ~2 µg/mL
